Source: PMC11245102 (bioRxiv, 2024)
Values joined by “and” are separate entries in the source; they are usually repeats but may differ in a detail not shown here. Equal values may be shown once. One block for each molecule: values may come before it.

Columns and labels:
[1] = target: type III CS from Cyanobium sp. PCC 7001 (Cyanobium sp. PCC 7001); experiment: mass photometry
[2] = target: type II CS from C. woesi (C. woesi); experiment: mass photometry
[3] = target: non-mitochondrial CS (nmCS) from Chlamydomonas reinhardtii (Chlamydomonas reinhardtii); experiment: mass photometry
[4] = target: CS from a Myxococcota species (type III CS) (a Myxococcota species); experiment: mass photometry
[5] = target: citrate synthase from M. sulfidovorans W150A (M. sulfidovorans); experiment: mass photometry
[6] = target: non-mitochondrial CS (nmCS) from C. fasciculata (C. fasciculata); experiment: mass photometry
[7] = target: type II CS from F. taffensis (F. taffensis); experiment: mass photometry
[8] = target: non-mitochondrial CS (nmCS) from Ananas comosus (Ananas comosus); experiment: mass photometry
[9] = target: non-mitochondrial CS (nmCS) from Ananas comosus (Ananas comosus); experiment: mass photometry; remark: listed apart in the source
[10] = target: non-mitochondrial CS (nmCS) from Ananas comosus (Ananas comosus); experiment: cryo-EM structure
mass photometry = target: the molecule itself; experiment: mass photometry

Molecule: non-mitochondrial CS (nmCS) from Chlamydomonas reinhardtii (enzyme)
- stoichiometry N [3]: 2

Molecule: non-mitochondrial CS (nmCS) from C. fasciculata (enzyme)
- stoichiometry N [6]: 6

B1: CS from A. comosus Δ487–513 (domain or fragment)
chain: MEGAFDHSALARARLAVLSGHLAAVSAAGGGASPLERSPVSVQEIPPPPRNLGGSLAVIDGRSGKKFEFKISDEGTVRATDFKKITTGKNDKGLKLYDPGYLNTAPVRSSICYIDGDEGILRYRGYPIEELAESSSYPEVAYLLMYGNLPSKSQLADWEFAISQHSAVPQGVLDIIQGMPHDAHPMGVLVCAMSALSVFHPDANPALRGQDLYKSKQLRDKQIVRILGKVPTIAAAAYLRLAGRPPVLPSNNFSYSENFLYMLDSLGNRSYKPNTRLARVLDILFILHAEHEMNCSTAAARHLASSGVDVFTALAGAVGALYGPLHGGANEAVLKMLNEIGTVENIPDFIEGVKNRKRKMSGFGHRVYKNYDPRAKVIRKLAEEVFSIVGRDPLIEVAIALEKAALSDEYFIKRKLYPNVDFYSGLIYRAMGFPTEFFPVLFAIPRMAGYLAHWRESLDDPDTKIMRPQQVYTGVWLRHYTPLQER
- stoichiometry N (mass photometry): 2

B2: non-mitochondrial CS (nmCS) from P. olsenii (enzyme)
chain: MDRLNTVAAHVAPTLTITDNRSGKKIDVKVKDGTIRATDLKQLGIQTYDPGYMNTTCCVSRISFIDGNRGVLRYRGYPIEQLAQDSSFTEVAFLLQYGELPTRGQLTQWEQDLMRHSMLHQDVATLTSAFRYDAHPMGMFVSAMAALGTLHPETNPALTSQNIYKDKAVRNKEIARILGSATTLAAMAYRHRMGRPFNTPNSDLGYTENFLYMLDVSHEGTSYRPHPKLVKALDVLFVLHAEHELNCSTSAMRHLTSSNVDVYTACAAAAGALYGPRHGGANEAVLRMLERIGSIENVPTFVDKVKQRKELLMGFGHRVYKHYDPRATIVRKIAEDVFEICGREPLIEVAMDLERIALSDPYFKDRKLYPNVDFYSGLIYKAMGFPTDMFPILFTVPRLAGWLAHWSEWIDDPENRIYRPFQVYKGYDKRDYVQVDERSEKVHSKELTVKRSAFNRRRDASLQSAAADRSEYEWIKD
- stoichiometry N (mass photometry): 6

Other lines, results leading:

- stoichiometry N [1]: 2
Molecule: type III CS from Cyanobium sp. PCC 7001 (enzyme)

- stoichiometry N [2]: 2
Molecule: type II CS from C. woesi (enzyme)

- stoichiometry N [4]: 2
Molecule: CS from a Myxococcota species (type III CS) (enzyme)

- stoichiometry N [5]: 2
Molecule: citrate synthase from M. sulfidovorans W150A (enzyme)

- stoichiometry N [7]: 2
Molecule: type II CS from F. taffensis (enzyme)

- stoichiometry N [8]: 8
- stoichiometry N [9]: 6 and 8
- stoichiometry N [10]: 8
Molecule: non-mitochondrial CS (nmCS) from Ananas comosus (enzyme)
